This experiment has as its target T1, α-CGRP (human) 37-mer peptide (calcitonin gene-related peptide) (Homo sapiens, UniProt P06881, C-terminal amide (amidated Phe119)).
T1 construct: human alpha-CGRP, mature 37-residue hormone; mature residues 26-37 correspond to 108-119 of the pro-hormone, so mature 1-37 would be 83-119; Only residues 26-37 (mature numbering; 108-119 of the pro-hormone) are visible in the complex structure; source: bought: Bachem
T1 chain: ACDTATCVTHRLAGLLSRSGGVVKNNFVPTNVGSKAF
In words: crystal structure; CGRP mixed with the Fab, complex purified by SEC; crystals at 20°C in sitting drops, 26% PEG MME 550, 9.5 mM ZnSO4, 95 mM MES pH 6.5, 30 mM glycyl-glycyl-glycine; X-ray diffraction to 3.10 Å; 2 Fab and 2 CGRP per asymmetric unit. To be noted: both partners purified.

The record followed here is PMC8810155, “The eptinezumab:CGRP complex structure – the role of conformational changes in binding stabilization” (Bioengineered, 2021).

B1: eptinezumab antigen-binding fragment (Fab) (Fab, V domains shown)
VH: EVQLVESGGGLVQPGGSLRLSCAVSGIDLSGYYMNWVRQAPGKGLEWVGVIGINGATYYASWAKGRFTISRDNSKTTVYLQMNSLRAEDTAVYFCARGDIWGQGTLVTVSS
VL: QVLTQSPSSLSASVGDRVTINCQASQSVYHNTYLAWYQQKPGKVPKQLIYDASTLASGVPSRFSGSGSGTDFTLTISSLQPEDVATYYCLGSYDCTNGDCFVFGGGTKVEIK
notes: heavy-chain part of the papain Fab of eptinezumab (humanized IgG1); light chain of eptinezumab; CDR L3 holds a disulfide bond (Cys95, Cys100 are named); also called eptinezumab Fab; source: partial endoproteolysis of eptinezumab with immobilized papain; purified by Fc depletion followed by SEC
As for B1, the binding result is recorded as “binds”.
